# Measurements reported in PMC8175417, “Streptococcus pneumoniae pneumolysin and neuraminidase A convert high-density lipoproteins into pro-atherogenic particles” (iScience, 2021).
# B1: Recombinant Streptococcus pneumoniae serotype 2 Pneumolysin (PLY) (natural protein, UniProt Q04IN8 1-471, looked up)
# chain: MANKAVNDFILAMNYDKKKLLTHQGESIENRFIKEGNQLPDEFVVIERKKRSLSTNTSDISVTATNDSRLYPGALLVVDETLLENNPTLLAVDRAPMTYSIDLPGLASSDSFLQVEDPSNSSVRGAVNDLLAKWHQDYGQVNNVPARMQYEKITAHSMEQLKVKFGSDFEKTGNSLDIDFNSVHSGEKQIQIVNFKQIYYTVSVDAVKNPGDVFQDTVTVEDLKQRGISAERPLVYISSVAYGRQVYLKLETTSKSDEVEAAFEALIKGVKVAPQTEWKQILDNTEVKAVILGGDPSSGARVVTGKVDMVEDLIQEGSRFTADHPGLPISYTTSFLRDNVVATFQNSTDYVETKVTAYRNGDLLLDHSGAYVAQYYITWDELSYDHQGKEVLTPKAWDRNGQDLTAHFTTSIPLKGNVRNLSVKIRECTGLAWEWWRTVYEKTDLPLVRKRTISIWGTTLYPQVEDKVEND
# notes: Pneumolysin (PLY), Streptococcus pneumoniae serotype 2; recombinant protein bought from Cusabio; Detected with a penta-His antibody
# Target: the molecule itself
# Test: non-reducing SDS-PAGE with Western blot; hirudin blood incubated with 200 nM PLY for 1 h at 37 °C; total HDL isolated from the plasma by flotation ultracentrifugation; samples and 50 ng PLY control run under non-reducing conditions; detected with anti-penta-His antibody
protein,measurement,value
B1,binding result,binds
